T1: hCEACAM5, human CEACAM5 ECD (35-685) (human, UniProt P06731 35-685)
T1 construct: produced in HEK293; also called human CEACAM5 protein; human CEACAM5 extracellular domain
T1 sequence: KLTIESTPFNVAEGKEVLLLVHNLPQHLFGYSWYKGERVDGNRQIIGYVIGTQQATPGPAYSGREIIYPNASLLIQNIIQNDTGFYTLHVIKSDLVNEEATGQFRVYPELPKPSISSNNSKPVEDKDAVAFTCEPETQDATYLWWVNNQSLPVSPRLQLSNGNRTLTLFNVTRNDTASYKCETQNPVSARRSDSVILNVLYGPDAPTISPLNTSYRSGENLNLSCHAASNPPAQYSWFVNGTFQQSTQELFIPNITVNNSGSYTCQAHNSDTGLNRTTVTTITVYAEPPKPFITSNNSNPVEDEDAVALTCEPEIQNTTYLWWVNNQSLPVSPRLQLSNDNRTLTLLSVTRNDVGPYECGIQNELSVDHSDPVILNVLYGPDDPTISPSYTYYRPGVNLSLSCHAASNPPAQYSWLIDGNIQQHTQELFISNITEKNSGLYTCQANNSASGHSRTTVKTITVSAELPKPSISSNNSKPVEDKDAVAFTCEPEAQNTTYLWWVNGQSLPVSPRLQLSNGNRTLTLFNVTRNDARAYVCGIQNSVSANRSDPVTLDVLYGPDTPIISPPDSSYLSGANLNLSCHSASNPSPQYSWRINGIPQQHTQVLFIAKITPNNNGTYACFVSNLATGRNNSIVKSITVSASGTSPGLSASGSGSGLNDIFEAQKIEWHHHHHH

T2: cCEACAM5, M. fascicularis CEACAM5 ECD (35-688) (Macaca fascicularis)
T2 construct: ECD followed by a 24 amino acid extension containing a His-Tag; also called cynomolgus CEACAM5; monkey CEACAM5
T2 chain: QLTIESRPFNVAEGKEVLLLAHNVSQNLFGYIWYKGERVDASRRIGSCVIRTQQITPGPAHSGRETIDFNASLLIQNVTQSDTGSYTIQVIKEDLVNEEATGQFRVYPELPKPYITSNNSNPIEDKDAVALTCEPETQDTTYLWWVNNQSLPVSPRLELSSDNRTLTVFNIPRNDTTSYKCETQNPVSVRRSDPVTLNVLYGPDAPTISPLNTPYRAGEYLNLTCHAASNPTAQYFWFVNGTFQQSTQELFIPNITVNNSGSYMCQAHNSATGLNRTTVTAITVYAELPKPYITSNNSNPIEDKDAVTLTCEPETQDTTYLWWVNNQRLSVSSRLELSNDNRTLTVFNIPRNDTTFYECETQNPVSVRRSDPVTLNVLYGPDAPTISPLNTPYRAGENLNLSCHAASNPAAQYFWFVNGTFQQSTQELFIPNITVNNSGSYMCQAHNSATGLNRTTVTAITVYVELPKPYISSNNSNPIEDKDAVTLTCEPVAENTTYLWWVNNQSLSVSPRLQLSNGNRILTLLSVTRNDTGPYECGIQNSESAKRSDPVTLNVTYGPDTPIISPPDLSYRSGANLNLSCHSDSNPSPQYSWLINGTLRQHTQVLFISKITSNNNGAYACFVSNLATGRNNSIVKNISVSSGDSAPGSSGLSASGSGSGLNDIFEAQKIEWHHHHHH


Key:
[1] = target: T1, hCEACAM5, human CEACAM5 ECD (35-685); test: SPR (Biacore T200), IgG captured by anti-human Fc, antigen injected at 50 nM; % remaining signal after 50 seconds
Procedure: (§1) To evaluate impact of these modifications, IgGs binding was determined by measuring SPR signals with a Biacore T200 unit (GE Healthcare). Anti-human Fc antibodies were coupled to a Series S CM5 chip via amine coupling kit to reach a level of 10,000 response units (RU). Approximately 300 to 600 RU of each variant were captured by injecting supernatants at 1 μg/mL with a contact time of 60 seconds and a flow rate of 10 μL/min. All experiments were performed at 25° C. with HBS-EP+(10 mM Hepes, 150 mM NaCl, 3 mM EDTA, 0.05% surfactant P20) as the running buffer. In a screening mode, the human CEACAM5 cynomolgus CEACAM5/human A3B3 domain was injected at 50 nM over the captured IgG variants at a flow rate of 30 μLimin for 1 minute. A dissociation phase of 60 seconds was held before the surface was regenerated with 1 pulse injection of 3 M MgCl₂ at a flow rate of 10 μLiminute and a contact time of 30 seconds.
(§2) For each experiment, response data were processed using a reference surface, thereby allowing correction for bulk refractive index changes and any non-specific binding. Data were double referenced using response from blank injections. According to the screening method described in an application note from GE Healthcare (Application note 28-9777-72 AA), two parameters were considered to rank the variants with respect to binding characteristics. First, the binding activity is estimated by the proportion of the theoretical maximum signal measured (percentage of Rmax, see FIG. 16). Second, the percentage of remaining signal is calculated using dissociation report points (the first one 10 seconds after the end of the injection and the second one 50 seconds after the end of injection) and reflects the stability of binding (see FIG. 17).

[2] = target: T2, cCEACAM5, M. fascicularis CEACAM5 ECD …; test: as above
Procedure: as §1, §2

[3] = target: T1, hCEACAM5, human CEACAM5 ECD (35-685); test: SPR (Biacore T200), IgG captured by anti-human Fc, antigen injected at 50 nM; % Rmax reached
Procedure: as §1, §2

[4] = target: T2, cCEACAM5, M. fascicularis CEACAM5 ECD …; test: as above
Procedure: as §1, §2

Row | Binder | binding result [1] | binding result [2] | binding result [3] | binding result [4]
1 | HC_S53A (antibody, V domains shown, variant of MAb2_VLg5VHg2) VH: EVQLVESGGGLVQPGGSLRLSCAASGFVFSSYDMSWVRQAPGKGLEWVSYISAGGGITYYADSVKGRFTISRDNSKNTLYLQMNSLRAEDTAVYYCAAHYFGSSGPFAYWGQGTLVTVSS VL: DIQMTQSPSSLSASVGDRVTITCRASENIFSYLAWYQQKPGKAPKLLIYNTRTLQSGVPSRFSGSGSGTDFTLTISSLQPEDFATYYCQHHYGTPFTFGQGTKLEIK | binds | binds | – | –
2 | LC_S31A-HC_G54Y (antibody, V domains shown, combination variant of MAb2_VLg5VHg2) VH: EVQLVESGGGLVQPGGSLRLSCAASGFVFSSYDMSWVRQAPGKGLEWVSYISSYGGITYYADSVKGRFTISRDNSKNTLYLQMNSLRAEDTAVYYCAAHYFGSSGPFAYWGQGTLVTVSS VL: DIQMTQSPSSLSASVGDRVTITCRASENIFAYLAWYQQKPGKAPKLLIYNTRTLQSGVPSRFSGSGSGTDFTLTISSLQPEDFATYYCQHHYGTPFTFGQGTKLEIK | – | – | binds | binds
3 | LC_S31A (antibody, V domains shown, variant of MAb2_VLg5VHg2) VH: EVQLVESGGGLVQPGGSLRLSCAASGFVFSSYDMSWVRQAPGKGLEWVSYISSGGGITYYADSVKGRFTISRDNSKNTLYLQMNSLRAEDTAVYYCAAHYFGSSGPFAYWGQGTLVTVSS VL: DIQMTQSPSSLSASVGDRVTITCRASENIFAYLAWYQQKPGKAPKLLIYNTRTLQSGVPSRFSGSGSGTDFTLTISSLQPEDFATYYCQHHYGTPFTFGQGTKLEIK | binds | binds | – | –
4 | LC_T94A (antibody, V domains shown, variant of MAb2_VLg5VHg2) VH: EVQLVESGGGLVQPGGSLRLSCAASGFVFSSYDMSWVRQAPGKGLEWVSYISSGGGITYYADSVKGRFTISRDNSKNTLYLQMNSLRAEDTAVYYCAAHYFGSSGPFAYWGQGTLVTVSS VL: DIQMTQSPSSLSASVGDRVTITCRASENIFSYLAWYQQKPGKAPKLLIYNTRTLQSGVPSRFSGSGSGTDFTLTISSLQPEDFATYYCQHHYGAPFTFGQGTKLEIK | – | – | binds | –
5 | LC_T51A-T94A (antibody, V domains shown, combination variant of MAb2_VLg5VHg2) VH: EVQLVESGGGLVQPGGSLRLSCAASGFVFSSYDMSWVRQAPGKGLEWVSYISSGGGITYYADSVKGRFTISRDNSKNTLYLQMNSLRAEDTAVYYCAAHYFGSSGPFAYWGQGTLVTVSS VL: DIQMTQSPSSLSASVGDRVTITCRASENIFSYLAWYQQKPGKAPKLLIYNARTLQSGVPSRFSGSGSGTDFTLTISSLQPEDFATYYCQHHYGAPFTFGQGTKLEIK | – | – | binds | binds
6 | LC_T53I-HC_S53A (antibody, V domains shown, combination variant of MAb2_VLg5VHg2) VH: EVQLVESGGGLVQPGGSLRLSCAASGFVFSSYDMSWVRQAPGKGLEWVSYISAGGGITYYADSVKGRFTISRDNSKNTLYLQMNSLRAEDTAVYYCAAHYFGSSGPFAYWGQGTLVTVSS VL: DIQMTQSPSSLSASVGDRVTITCRASENIFSYLAWYQQKPGKAPKLLIYNTRILQSGVPSRFSGSGSGTDFTLTISSLQPEDFATYYCQHHYGTPFTFGQGTKLEIK | – | – | binds | binds
7 | LC_T51A (antibody, V domains shown, variant of MAb2_VLg5VHg2) VH: EVQLVESGGGLVQPGGSLRLSCAASGFVFSSYDMSWVRQAPGKGLEWVSYISSGGGITYYADSVKGRFTISRDNSKNTLYLQMNSLRAEDTAVYYCAAHYFGSSGPFAYWGQGTLVTVSS VL: DIQMTQSPSSLSASVGDRVTITCRASENIFSYLAWYQQKPGKAPKLLIYNARTLQSGVPSRFSGSGSGTDFTLTISSLQPEDFATYYCQHHYGTPFTFGQGTKLEIK | binds | binds | – | –
